Test results reported in publication PMC5448812, “Distinct DNA-binding surfaces in the ATPase and linker domains of MutLγ determine its substrate specificities and exert separable functions in meiotic recombination and mismatch repair”.

Columns and labels:
HisFlag-Mlh1;Mlh3 [1] = target: T1, HisFlag-Mlh1;Mlh3 (Saccharomyces cerevisiae (S288c strain …, UniProt P38920;Q12083 1-769;1-715, |)); test: EMSA; Hill slope 2.9 +/- 0.27; 5 mM EDTA; EMSA: 25 mM Tris-HCl pH 7.5, 15% glycerol, 100 mM NaCl, 2 mM DTT, 5 mM EDTA, 1 mg/ml BSA, 30 min 30 C, 1 nM DNA; pull-down: similar, 10% glycerol, 0.2 mg/ml BSA, 0.1% Triton X-100, 4 C; conditions: protein: recombinant;recombinant; tags: N-terminal 6xHis-2xFlag;none; copies: 1;1; label: 5'-32P when used as probe
T1 sequence 1: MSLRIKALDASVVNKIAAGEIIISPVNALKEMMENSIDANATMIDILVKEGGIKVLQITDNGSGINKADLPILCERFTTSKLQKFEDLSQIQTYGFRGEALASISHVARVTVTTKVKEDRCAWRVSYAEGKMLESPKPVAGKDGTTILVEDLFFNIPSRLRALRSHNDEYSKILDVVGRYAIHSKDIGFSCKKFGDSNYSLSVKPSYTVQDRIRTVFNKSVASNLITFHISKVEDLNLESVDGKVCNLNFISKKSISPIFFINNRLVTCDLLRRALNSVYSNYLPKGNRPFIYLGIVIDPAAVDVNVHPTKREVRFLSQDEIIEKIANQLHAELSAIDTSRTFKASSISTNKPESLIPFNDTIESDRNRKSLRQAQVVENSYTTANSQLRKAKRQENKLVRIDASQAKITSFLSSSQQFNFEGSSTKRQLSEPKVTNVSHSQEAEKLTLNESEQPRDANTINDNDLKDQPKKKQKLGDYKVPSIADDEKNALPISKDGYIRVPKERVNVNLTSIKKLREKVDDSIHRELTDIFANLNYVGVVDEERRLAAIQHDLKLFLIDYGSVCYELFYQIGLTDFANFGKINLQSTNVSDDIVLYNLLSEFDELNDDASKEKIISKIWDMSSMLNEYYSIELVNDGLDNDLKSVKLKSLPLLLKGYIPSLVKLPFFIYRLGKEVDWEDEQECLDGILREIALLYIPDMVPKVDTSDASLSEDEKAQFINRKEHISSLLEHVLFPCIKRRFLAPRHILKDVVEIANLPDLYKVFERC
T1 sequence 2: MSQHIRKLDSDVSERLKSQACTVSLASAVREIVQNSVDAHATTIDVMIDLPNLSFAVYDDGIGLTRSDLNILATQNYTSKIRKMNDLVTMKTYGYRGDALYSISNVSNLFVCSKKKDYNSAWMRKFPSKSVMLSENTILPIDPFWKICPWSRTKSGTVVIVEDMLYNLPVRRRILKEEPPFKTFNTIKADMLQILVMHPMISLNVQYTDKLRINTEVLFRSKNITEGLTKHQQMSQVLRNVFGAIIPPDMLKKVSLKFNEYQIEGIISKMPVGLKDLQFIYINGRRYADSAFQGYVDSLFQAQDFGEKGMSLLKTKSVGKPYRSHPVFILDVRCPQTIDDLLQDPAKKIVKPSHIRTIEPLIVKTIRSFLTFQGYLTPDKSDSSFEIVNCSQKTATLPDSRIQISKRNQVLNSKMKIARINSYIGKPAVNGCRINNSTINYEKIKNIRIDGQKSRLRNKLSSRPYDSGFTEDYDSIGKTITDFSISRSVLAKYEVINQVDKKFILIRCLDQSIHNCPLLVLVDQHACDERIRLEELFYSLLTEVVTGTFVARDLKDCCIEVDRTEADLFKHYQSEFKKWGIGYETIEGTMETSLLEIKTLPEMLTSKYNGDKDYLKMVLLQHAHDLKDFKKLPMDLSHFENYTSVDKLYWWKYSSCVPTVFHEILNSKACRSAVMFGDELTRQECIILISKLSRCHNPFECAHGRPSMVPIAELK

HisFlag-Mlh1;Mlh3 [2] = target: T1, HisFlag-Mlh1;Mlh3; test: FeBABE footprinting; cleavage in Mlh1 N-terminal domain and linker; EMSA: 25 mM Tris-HCl pH 7.5, 15% glycerol, 100 mM NaCl, 2 mM DTT, 5 mM EDTA, 1 mg/ml BSA, 30 min 30 C, 1 nM DNA; pull-down: similar, 10% glycerol, 0.2 mg/ml BSA, 0.1% Triton X-100, 4 C; conditions: protein: recombinant;recombinant; tags: N-terminal 6xHis-2xFlag;none; copies: 1;1; label: 3'-biotin
[3] = target: T2, Mlh1 untagged;HisFlag-Mlh3 (Saccharomyces cerevisiae (S288c strain …, UniProt P38920;Q12083 1-769;1-715, |)); test: FeBABE footprinting; cleavage in Mlh3 N-terminal domain and linker; EMSA: 25 mM Tris-HCl pH 7.5, 15% glycerol, 100 mM NaCl, 2 mM DTT, 5 mM EDTA, 1 mg/ml BSA, 30 min 30 C, 1 nM DNA; pull-down: similar, 10% glycerol, 0.2 mg/ml BSA, 0.1% Triton X-100, 4 C; conditions: protein: recombinant;recombinant; tags: none;N-terminal 6xHis-2xFlag; copies: 1;1; label: 3'-biotin
T2 sequence 1: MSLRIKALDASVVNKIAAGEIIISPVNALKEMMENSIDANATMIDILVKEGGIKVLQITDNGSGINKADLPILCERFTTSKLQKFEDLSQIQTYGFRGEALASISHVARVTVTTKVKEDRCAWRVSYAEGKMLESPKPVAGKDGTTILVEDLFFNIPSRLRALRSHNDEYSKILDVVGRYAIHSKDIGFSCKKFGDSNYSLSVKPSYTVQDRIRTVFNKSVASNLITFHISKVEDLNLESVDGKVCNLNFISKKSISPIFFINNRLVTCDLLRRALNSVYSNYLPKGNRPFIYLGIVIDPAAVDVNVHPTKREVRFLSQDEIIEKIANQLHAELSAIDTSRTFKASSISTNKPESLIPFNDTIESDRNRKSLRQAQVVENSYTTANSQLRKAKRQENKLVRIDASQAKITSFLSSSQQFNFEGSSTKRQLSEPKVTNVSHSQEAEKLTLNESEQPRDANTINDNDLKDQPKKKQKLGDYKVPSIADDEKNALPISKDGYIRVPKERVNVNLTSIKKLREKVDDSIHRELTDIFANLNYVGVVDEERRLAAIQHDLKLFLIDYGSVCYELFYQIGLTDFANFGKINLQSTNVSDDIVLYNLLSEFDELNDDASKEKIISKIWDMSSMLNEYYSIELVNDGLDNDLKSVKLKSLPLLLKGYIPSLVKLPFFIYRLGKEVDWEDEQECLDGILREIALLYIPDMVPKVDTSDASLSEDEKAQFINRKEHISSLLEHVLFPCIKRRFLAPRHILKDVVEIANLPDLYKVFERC
T2 sequence 2: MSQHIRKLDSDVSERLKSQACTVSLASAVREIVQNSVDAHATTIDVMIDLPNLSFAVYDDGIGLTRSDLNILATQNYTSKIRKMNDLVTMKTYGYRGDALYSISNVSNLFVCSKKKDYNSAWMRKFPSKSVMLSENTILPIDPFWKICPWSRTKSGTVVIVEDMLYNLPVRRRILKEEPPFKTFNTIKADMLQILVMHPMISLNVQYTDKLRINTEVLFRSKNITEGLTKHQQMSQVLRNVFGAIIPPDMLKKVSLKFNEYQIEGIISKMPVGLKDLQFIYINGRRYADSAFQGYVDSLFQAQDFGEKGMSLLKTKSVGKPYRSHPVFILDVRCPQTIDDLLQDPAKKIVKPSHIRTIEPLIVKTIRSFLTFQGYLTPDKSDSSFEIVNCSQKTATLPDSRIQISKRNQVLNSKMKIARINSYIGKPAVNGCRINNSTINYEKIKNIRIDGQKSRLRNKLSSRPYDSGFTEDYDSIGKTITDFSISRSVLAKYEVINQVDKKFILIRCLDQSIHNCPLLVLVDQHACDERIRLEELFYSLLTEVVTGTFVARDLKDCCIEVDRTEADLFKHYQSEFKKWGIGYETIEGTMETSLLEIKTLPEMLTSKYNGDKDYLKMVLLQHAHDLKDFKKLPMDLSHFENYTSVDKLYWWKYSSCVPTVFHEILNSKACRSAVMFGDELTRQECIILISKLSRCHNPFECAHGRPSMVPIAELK

HisFlag-Mlh1;Mlh3 [4] = target: T1, HisFlag-Mlh1;Mlh3; test: EMSA; Hill slope 2.0 +/- 0.05; 5 mM EDTA; EMSA: 25 mM Tris-HCl pH 7.5, 15% glycerol, 100 mM NaCl, 2 mM DTT, 5 mM EDTA, 1 mg/ml BSA, 30 min 30 C, 1 nM DNA; pull-down: similar, 10% glycerol, 0.2 mg/ml BSA, 0.1% Triton X-100, 4 C; conditions: protein: recombinant;recombinant; tags: N-terminal 6xHis-2xFlag;none; copies: 1;1; label: 5'-32P when used as probe; four-way junction, 40 bp arms
HisFlag-Mlh1;Mlh3 [5] = target: T1, HisFlag-Mlh1;Mlh3; test: FeBABE footprinting; mostly Mlh1 linker; EMSA: 25 mM Tris-HCl pH 7.5, 15% glycerol, 100 mM NaCl, 2 mM DTT, 5 mM EDTA, 1 mg/ml BSA, 30 min 30 C, 1 nM DNA; pull-down: similar, 10% glycerol, 0.2 mg/ml BSA, 0.1% Triton X-100, 4 C; conditions: protein: recombinant;recombinant; tags: N-terminal 6xHis-2xFlag;none; copies: 1;1; label: 3'-biotin on strand 1; four-way junction, 40 bp arms
[6] = target: T2, Mlh1 untagged;HisFlag-Mlh3; test: FeBABE footprinting; Mlh3 linker enriched; EMSA: 25 mM Tris-HCl pH 7.5, 15% glycerol, 100 mM NaCl, 2 mM DTT, 5 mM EDTA, 1 mg/ml BSA, 30 min 30 C, 1 nM DNA; pull-down: similar, 10% glycerol, 0.2 mg/ml BSA, 0.1% Triton X-100, 4 C; conditions: protein: recombinant;recombinant; tags: none;N-terminal 6xHis-2xFlag; copies: 1;1; label: 3'-biotin on strand 1; four-way junction, 40 bp arms
HisFlag-Mlh1;Mlh3 [7] = target: T1, HisFlag-Mlh1;Mlh3; test: competition; labeled poly-dT 80 nt; 500x excess in nt; EMSA: 25 mM Tris-HCl pH 7.5, 15% glycerol, 100 mM NaCl, 2 mM DTT, 5 mM EDTA, 1 mg/ml BSA, 30 min 30 C, 1 nM DNA; pull-down: similar, 10% glycerol, 0.2 mg/ml BSA, 0.1% Triton X-100, 4 C; conditions: protein: recombinant;recombinant; tags: N-terminal 6xHis-2xFlag;none; copies: 1;1

B1: ssDNA80 (cb099, poly-dT) (ssDNA)
DNA: TTTTTTTTTTTTTTTTTTTTTTTTTTTTTTTTTTTTTTTTTTTTTTTTTTTTTTTTTTTTTTTTTTTTTTTTTTTTTTTT
B1 showed a Kd (HisFlag-Mlh1;Mlh3 [1]) of 45.9 nM.

B2: ssDNA+ (cb361) (ssDNA)
DNA: TTTTTTTTTTTTTTTTTTTTTTTTTTTTTTTTTTTTTTTTTTTTTTTTTTTTTTTTTTTTTTTTTTTTTTTTTTTTTTTT
modifications: phosphorothioates every 8 nt, FeBABE-conjugated
B2: binds (HisFlag-Mlh1;Mlh3 [2]); binds [3].

B3: HJ80 (cb095-098) (structured_DNA)
DNA 1: CTAGTATAGAGCCGGCGCGCCATGTCTAGATAGCGTTAGGTCTGCCGAATAGTACTACTCGGATCCCGAGCGAACCACGC
DNA 2: GCGTGGTTCGCTCGGGATCCGAGTAGTACTATTCGGCAGAGGATTCGAATAGGCCTAATCGAATTCCGCCATCGATGCAC
DNA 3: GTGCATCGATGGCGGAATTCGATTAGGCCTATTCGAATCCAGACGCGAGTAGATCTTCACGGTACCCGCGGTTACCCGTG
DNA 4: CACGGGTAACCGCGGGTACCGTGAAGATCTACTCGCGTCTCCTAACGCTATCTAGACATGGCGCGCCGGCTCTATACTAG
For B3, the Kd (HisFlag-Mlh1;Mlh3 [4]) was 72.9 nM.

B4: HJ+1 (cb256, 351, 369, 98) (structured_DNA)
DNA 1: CTAGTATAGAGCCGGCGCGCCATGTCTAGATAGCGTTAGGTCTGCCGAATAGTACTACTCGGATCCCGAGCGAACCACGC
DNA 2: GCGTGGTTCGCTCGGGATCCGAGTAGTACTATTCGGCAGAGGATTCGAATAGGCCTAATCGAATTCCGCCATCGATGCAC
DNA 3: GTGCATCGATGGCGGAATTCGATTAGGCCTATTCGAATCCAGACGCGAGTAGATCTTCACGGTACCCGCGGTTACCCGTG
DNA 4: CACGGGTAACCGCGGGTACCGTGAAGATCTACTCGCGTCTCCTAACGCTATCTAGACATGGCGCGCCGGCTCTATACTAG
modifications: phosphorothioates in strands 2 and 3 (segment 1), FeBABE-conjugated
B4: binds (HisFlag-Mlh1;Mlh3 [5]); binds [6].

TTTTTTTTTT (ssDNA) [ssDNA 10 nt competitor (poly-dT?)]: no binding (HisFlag-Mlh1;Mlh3 [7]).
